This is an account of results in the supplement of paper PMC5998384.

The test system of data set [1] is HeLa Kyoto. The experiment in a line: solubility change mitosis vs G1/S (difference of NP-40 vs SDS log2 ratios) (log2 ratio difference); higher = more soluble in mitosis.
In data set [2] the test system is HeLa Kyoto. Kind of data set: solubility in G1/S (NP-40 vs SDS abundance) (log2 ratio); higher = more soluble. As to conditions: cell cycle stage: G1/S.
The test system of data set [3] is HeLa Kyoto. Kind of data set: melting temperature (median over replicates), in situ; higher = more thermally stable.
Data set [4] has as its system HeLa Kyoto. Kind of data set: thermal stability score vs G1/S (z-score of summed log2 fold changes over temperatures); higher = more thermally stable than in G1/S.
Setting [5] is: cell cycle stage: early G1 (4.5 h after nocodazole release).
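Throughout, for melting temperature (median over replicates), in situ: HeLa Kyoto cells synchronized by double thymidine or nocodazole block, proteins quantified by TMT10plex mass spectrometry, three independent biological replicates.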
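Throughout, for solubility change mitosis vs G1/S (difference of NP-40 vs SDS log2 ratios): synchronized HeLa Kyoto cells (double thymidine block for G1/S, nocodazole release for mitosis), protein amounts in NP-40 versus SDS lysates quantified by mass spectrometry, three biological replicates.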
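Throughout, for solubility in G1/S (NP-40 vs SDS abundance): HeLa Kyoto cells arrested at G1/S by double thymidine block, proteins quantified by TMT10plex mass spectrometry in mild NP-40 versus SDS extracts, three biological replicates.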
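Throughout, for thermal stability score vs G1/S (z-score of summed log2 fold changes over temperatures): synchronized HeLa Kyoto cells, proteins quantified by TMT10plex mass spectrometry, three biological replicates, mitosis taken 0.5 h after nocodazole release, G1/S directly after double thymidine block.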

In the case of “MEGGPAVCCQDPRAELVERVAAIDVTHLEEADGGPEPTRNGVDPPPRARAASVIPGSTSRLLPARPSLSARKLSLQERPAGSYLEAQAGPYATGPASHISPRAWRRPTIESHHVAISDAEDCVQLNQYKLQSEIGKGAYGVVRLAYNESEDRHYAMKVLSKKKLLKQYGFPRRPPPRGSQAAQGGPAKQLLPLERVYQEIAILKKLDHVNVVKLIEVLDDPAEDNLYLVFDLLRKGPVMEVPCDKPFSEEQARLYLRDVILGLEYLHCQKIVHRDIKPSNLLLGDDGHVKIADFGVSNQFEGNDAQLSSTAGTPAFMAPEAISDSGQSFSGKALDVWATGVTLYCFVYGKCPFIDDFILALHRKIKNEPVVFPEEPEISEELKDLILKMLDKNPETRIGVPDIKLHPWVTKNGEEPLPSEEEHCSVVEVTEEEVKNSVRLIPSWTTVILVKSMLRKRSFGNPFEPQARREERSMSAPGNLLVKEGFGEGGKSPELPGVQEDEAAS [CAMKK1]”, the “solubility change mitosis (log2)” value in data set [1] is 0.147. In addition, the “solubility in G1/S (log2)” value in data set [2] came out at 0.186. The sequence also came in with a melting temperature in data set [3] (cell cycle stage: mitosis) of 50.4 °C. Further, the thermal stability score in data set [4] (setting [5]) is -0.286; in data set [4] (cell cycle stage: mitosis), 0.129.

Regarding “MEGMDVDLDPELMQKFSCLGTTDKDVLISEFQRLLGFQLNPAGCAFFLDMTNWNLQAAIGAYYDFESPNISVPSMSFVEDVTIGEGESIPPDTQFVKTWRIQNSGAEAWPPGVCLKYVGGDQFGHVNMVMVRSLEPQEIADVSVQMCSPSRAGMYQGQWRMCTATGLYYGDVIWVILSVEVGGLLGVTQQLSSFETEFNTQPHRKVEGNFNPFASPQKNRQSDENNLKDPGGSEFDSISKNTWAPAPDTWAPAPDQTEQDQNRLSQNSVNLSPSSHANNLSVVTYSKGLHGPYPFGQS [C6ORF106]”, the “solubility change mitosis (log2)” value in data set [1] was -0.211. For the same sequence, in data set [2], the “solubility in G1/S (log2)” value turned out to be 0.214. In data set [3] (cell cycle stage: G1/S), this sequence returned a melting temperature of 49.4 °C. For the same sequence, the thermal stability score stood at 0.563 in data set [4] (setting [5]) and 0.668 in data set [4] (cell cycle stage: mitosis).

Consider “MEGPAEWGPEAALGPEAVLRFLAERGGRALHAELVQHFRGALGGEPEQRARARAHFKELVNAVATVRVDPADGAKYVHLKKRFCEGPSEPSGDPPRIQVTAEPEAPDGPAGPEARDRLPDAAAPESLPGQGRELGEGEPPAPAHWPPLSAGARRKNSRRDVQPLPRTPAPGPSEDLELPPHGCEEADRGSSLVGATAQRPARQNLRDLVMGSSPQLKRSVCPGGSSPGSSSGGGRGRGGGDSDSASVASSSAEEESSGGGSVTLDPLEHAWMLSASDGKWDSLEGLLTCEPGLLVKRDFITGFTCLHWAAKHGRQELLAMLVNFANKHQLPVNIDARTSGGYTALHLAAMHGHVEVVKLLVGAYDADVDIRDYSGKKASQYLSRSIAEEIKNLVGALDEGDGESAAGSGGGRWRLSKVLPSHLITYKLSHALEDGGDHHHHHHSAEGWVGGKAKDPGRKASGSSSGRIKPRLNKIRFRTQIVHTTPSFRDPEQPLEGRGEEGVGEERPVKGHSPFTLRPKSNVFG [SOWAHC]”, for which the “solubility change mitosis (log2)” value in data set [1] is 0.021. The “solubility in G1/S (log2)” value in data set [2] stood at 0.325. The melting temperature in data set [3] (cell cycle stage: G1/S) was 51.2 °C; in data set [3] (cell cycle stage: mitosis), 49.7 °C. Also, the values for the thermal stability score in data set [4] (setting [5]) and in data set [4] (cell cycle stage: mitosis) were 0.128 and -0.236, respectively.

Take “MEGQRWLPLEANPEVTNQFLKQLGLHPNWQFVDVYGMDPELLSMVPRPVCAVLLLFPITEKYEVFRTEEEEKIKSQGQDVTSSVYFMKQTISNACGTIGLIHAIANNKDKMHFESGSTLKKFLEESVSMSPEERARYLENYDAIRVTHETSAHEGQTEAPSIDEKVDLHFIALVHVDGHLYELDGRKPFPINHGETSDETLLEDAIEVCKKFMERDPDELRFNAIALSAA [UCHL3]”: in data set [1], the “solubility change mitosis (log2)” value was determined as 0.183. The “solubility in G1/S (log2)” value in data set [2] was 0.205. The melting temperature in data set [3] (cell cycle stage: G1/S) and in data set [3] (cell cycle stage: mitosis) was 52.2 °C throughout. The thermal stability score is 0.593 in data set [4] (setting [5]) and -0.422 in data set [4] (cell cycle stage: mitosis).

With “MEHVTEGSWESLPVPLHPQVLGALRELGFPYMTPVQSATIPLFMRNKDVAAEAVTGSGKTLAFVIPILEILLRREEKLKKSQVGAIIITPTRELAIQIDEVLSHFTKHFPEFSQILWIGGRNPGEDVERFKQQGGNIIVATPGRLEDMFRRKAEGLDLASCVRSLDVLVLDEADRLLDMGFEASINTILEFLPKQRRTGLFSATQTQEVENLVRAGLRNPVRVSVKEKGVAASSAQKTPSRLENYYMVCKADEKFNQLVHFLRNHKQEKHLVFFSTCACVEYYGKALEVLVKGVKIMCIHGKMKYKRNKIFMEFRKLQSGILVCTDVMARGIDIPEVNWVLQYDPPSNASAFVHRCGRTARIGHGGSALVFLLPMEESYINFLAINQKCPLQEMKPQRNTADLLPKLKSMALADRAVFEKGMKAFVSYVQAYAKHECNLIFRLKDLDFASLARGFALLRMPKMPELRGKQFPDFVPVDVNTDTIPFKDKIREKQRQKLLEQQRREKTENEGRRKFIKNKAWSKQKAKKEKKKKMNEKRKREEGSDIEDEDMEELLNDTRLLKKLKKGKITEEEFEKGLLTTGKRTIKTVDLGISDLEDDC [DDX55]”, the “solubility change mitosis (log2)” value in data set [1] stood at 0.392. For the same sequence, the “solubility in G1/S (log2)” value in data set [2] was -1.07. Besides, the melting temperature in data set [3] (cell cycle stage: G1/S) is 49.2 °C; in data set [3] (cell cycle stage: mitosis), 50.7 °C. Also, the thermal stability score in data set [4] (setting [5]) was 2.22; in data set [4] (cell cycle stage: mitosis), 3.29.

Turning to “MEIGTEISRKIRSAIKGKLQELGAYVDEELPDYIMVMVANKKSQDQMTEDLSLFLGNNTIRFTVWLHGVLDKLRSVTTEPSSLKSSDTNIFDSNVPSNKSNFSRGDERRHEAAVPPLAIPSARPEKRDSRVSTSSQESKTTNVRQTYDDGAATRLMSTVKPLREPAPSEDVIDIKPEPDDLIDEDLNFVQENPLSQKKPTVTLTYGSSRPSIEIYRPPASRNADSGVHLNRLQFQQQQNSIHAAKQLDMQSSWVYETGRLCEPEVLNSLEETYSPFFRNNSEKMSMEDENFRKRKLPVVSSVVKVKKFNHDGEEEEEDDDYGSRTGSISSSVSVPAKPERRPSLPPSKQANKNLILKAISEAQESVTKTTNYSTVPQKQTLPVAPRTRTSQEELLAEVVQGQSRTPRISPPIKEEETKGDSVEKNQGTQQRQLLSRLQIDPVMAETLQMSQDYYDMESMVHADTRSFILKKPKLSEEVVVAPNQESGMKTADSLRVLSGHLMQTRDLVQPDKPASPKFIVTLDGVPSPPGYMSDQEEDMCFEGMKPVNQTAASNKGLRGLLHPQQLHLLSRQLEDPNGSFSNAEMSELSVAQKPEKLLERCKYWPACKNGDECAYHHPISPCKAFPNCKFAEKCLFVHPNCKYDAKCTKPDCPFTHVSRRIPVLSPKPAVAPPAPPSSSQLCRYFPACKKMECPFYHPKHCRFNTQCTRPDCTFYHPTINVPPRHALKWIRPQTSE [ZC3H14]”, the “solubility change mitosis (log2)” value in data set [1] is 0.656. For the same sequence, the “solubility in G1/S (log2)” value in data set [2] was -0.475. Further, the melting temperature worked out at 49.7 °C in data set [3] (cell cycle stage: G1/S) and 51.2 °C in data set [3] (cell cycle stage: mitosis). Also, the thermal stability score in data set [4] (setting [5]) is -0.823; in data set [4] (cell cycle stage: mitosis), 0.321.

With “MEIPGSLCKKVKLSNNAQNWGMQRATNVTYQAHHVSRNKRGQVVGTRGGFRGCTVWLTGLSGAGKTTVSMALEEYLVCHGIPCYTLDGDNIRQGLNKNLGFSPEDREENVRRIAEVAKLFADAGLVCITSFISPYTQDRNNARQIHEGASLPFFEVFVDAPLHVCEQRDVKGLYKKARAGEIKGFTGIDSEYEKPEAPELVLKTDSCDVNDCVQQVVELLQERDIVPVDASYEVKELYVPENKLHLAKTDAETLPALKINKVDMQWVQVLAEGWATPLNGFMREREYLQCLHFDCLLDGGVINLSVPIVLTATHEDKERLDGCTAFALMYEGRRVAILRNPEFFEHRKEERCARQWGTTCKNHPYIKMVMEQGDWLIGGDLQVLDRVYWNDGLDQYRLTPTELKQKFKDMNADAVFAFQLRNPVHNGHALLMQDTHKQLLERGYRRPVLLLHPLGGWTKDDDVPLMWRMKQHAAVLEEGVLNPETTVVAIFPSPMMYAGPTEVQWHCRARMVAGANFYIVGRDPAGMPHPETGKDLYEPSHGAKVLTMAPGLITLEIVPFRVAAYNKKKKRMDYYDSEHHEDFEFISGTRMRKLAREGQKPPEGFMAPKAWTVLTEYYKSLEKA [PAPSS1]”, the “solubility change mitosis (log2)” value in data set [1] is -0.174. Moreover, in data set [2], the “solubility in G1/S (log2)” value came to 0.104. Besides, the melting temperature in data set [3] (cell cycle stage: G1/S) was 53.6 °C; in data set [3] (cell cycle stage: mitosis), 53.8 °C. In addition, the thermal stability score in data set [4] (setting [5]) is 0.0766; in data set [4] (cell cycle stage: mitosis) it was -0.551.

On to “MEIPPTNYPASRAALVAQNYINYQQGTPHRVFEVQKVKQASMEDIPGRGHKYHLKFAVEEIIQKQVKVNCTAEVLYPSTGQETAPEVNFTFEGETGKNPDEEDNTFYQRLKSMKEPLEAQNIPDNFGNVSPEMTLVLHLAWVACGYIIWQNSTEDTWYKMVKIQTVKQVQRNDDFIELDYTILLHNIASQEIIPWQMQVLWHPQYGTKVKHNSRLPKEVQLE [LXN]”, for which the “solubility change mitosis (log2)” value in data set [1] is -0.098. In addition, the “solubility in G1/S (log2)” value in data set [2] came to 0.224. For the same sequence, the values for the melting temperature in data set [3] (cell cycle stage: G1/S) and in data set [3] (cell cycle stage: mitosis) were 51.9 °C and 52.3 °C, respectively. Besides, the thermal stability score in data set [4] (setting [5]) came out at 0.745; in data set [4] (cell cycle stage: mitosis) it was 0.0486.

On to “MEKIPVSAFLLLVALSYTLARDTTVKPGAKKDTKDSRPKLPQTLSRGWGDQLIWTQTYEEALYKSKTSNKPLMIIHHLDECPHSQALKKVFAENKEIQKLAEQFVLLNLVYETTDKHLSPDGQYVPRIMFVDPSLTVRADITGRYSNRLYAYEPADTALLLDNMKKALKLLKTEL [AGR2]”, for which the “solubility change mitosis (log2)” value in data set [1] came to 0.3. The “solubility in G1/S (log2)” value in data set [2] came to 0.49. In addition, the melting temperature is 53.8 °C in data set [3] (cell cycle stage: G1/S) and 53.4 °C in data set [3] (cell cycle stage: mitosis). Besides, the thermal stability score is 0.575 in data set [4] (setting [5]) and -1.24 in data set [4] (cell cycle stage: mitosis).
